Reference: the supplement of paper PMC9112550, “Optimization of the antimicrobial peptide Bac7 by deep mutational scanning” (BMC Biology, 2022)

What follows are sequences tested on Escherichia coli TOP10 (assay: shrunken log2 fold change of peptide-encoding DNA abundance (4.5 h post-induction vs induction); higher = less antimicrobial activity (less host growth inhibition)). Conditions: time post-induction: 4.5 h; library: site-saturation at positions 5, 18, 19, 20.
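Also: peptides expressed intracellularly from a pBAD plasmid library in pooled LB shake-flask culture, induced with 0.3% L-arabinose, DNA abundance read by NGS, three biological replicates, DESeq2 with apeglm shrinkage.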

Sequence	shrunken log2 fold change
RRIRCRPPRLPRPRPRPCIFPRP	-0.396
RRIRKRPPRLPRPRPRPINAPRP	0.088
RRIRRRPPRLPRPRPRPFWSPRP	0.18
RRIRNRPPRLPRPRPRPMHLPRP	-0.179
RRIRMRPPRLPRPRPRPFVDPRP	-0.338
RRIRMRPPRLPRPRPRPPYSPRP	-0.0464
RRIRVRPPRLPRPRPRPCTTPRP	0.167
RRIRPRPPRLPRPRPRPDEVPRP	0.188
RRIRPRPPRLPRPRPRPSSCPRP	0.0133
RRIRRRPPRLPRPRPRPCMPPRP	-0.301
RRIRRRPPRLPRPRPRPHQLPRP	-0.225
RRIRRRPPRLPRPRPRPMKKPRP	-0.0239
RRIRHRPPRLPRPRPRPDIDPRP	-0.235
RRIRPRPPRLPRPRPRPAAMPRP	0.302
RRIRHRPPRLPRPRPRPGCCPRP	0.0396
RRIRKRPPRLPRPRPRPYGMPRP	-0.284
RRIRLRPPRLPRPRPRPDARPRP	0.0258
RRIRSRPPRLPRPRPRPAGWPRP	0.795
RRIRFRPPRLPRPRPRPVIIPRP	-0.415
RRIRSRPPRLPRPRPRPKCDPRP	0.00444
RRIRIRPPRLPRPRPRPRSQPRP	0.085
RRIRSRPPRLPRPRPRPGYVPRP	-0.809
RRIRQRPPRLPRPRPRPAHYPRP	-0.332
RRIRSRPPRLPRPRPRPNWDPRP	-0.315
RRIRSRPPRLPRPRPRPDIPPRP	-0.178

Sequence	shrunken log2 fold change
RRIRWRPPRLPRPRPRPPMKPRP	0.234
RRIRIRPPRLPRPRPRPWILPRP	-0.349
RRIRKRPPRLPRPRPRPDLRPRP	0.103
RRIRSRPPRLPRPRPRPSSVPRP	-0.354
RRIRPRPPRLPRPRPRPNCQPRP	0.419
RRIRYRPPRLPRPRPRPVGHPRP	-0.076
RRIRNRPPRLPRPRPRPCVDPRP	0.037
RRIRCRPPRLPRPRPRPSKHPRP	-0.553
RRIRNRPPRLPRPRPRPAKKPRP	-0.0505
RRIRQRPPRLPRPRPRPVLIPRP	0.0422
RRIRDRPPRLPRPRPRPHRMPRP	0.0707
RRIRARPPRLPRPRPRPAGRPRP	0.723
RRIRKRPPRLPRPRPRPLRKPRP	0.968
RRIRDRPPRLPRPRPRPVNNPRP	0.0566
RRIRERPPRLPRPRPRPILAPRP	-0.349
RRIRGRPPRLPRPRPRPVFFPRP	0.888
RRIRYRPPRLPRPRPRPGSCPRP	-0.308
RRIRRRPPRLPRPRPRPDMVPRP	0.206
RRIRRRPPRLPRPRPRPSDCPRP	-0.0825
RRIRCRPPRLPRPRPRPHKFPRP	-0.742
RRIRHRPPRLPRPRPRPQPIPRP	-0.13
RRIRDRPPRLPRPRPRPLEMPRP	0.0813
RRIRLRPPRLPRPRPRPPQEPRP	0.0145
RRIRMRPPRLPRPRPRPTPWPRP	0.844
RRIRCRPPRLPRPRPRPECMPRP	0.119

Sequence	shrunken log2 fold change
RRIRPRPPRLPRPRPRPGEQPRP	1.29
RRIRMRPPRLPRPRPRPTSCPRP	0.415
RRIRKRPPRLPRPRPRPKNFPRP	-0.148
RRIRQRPPRLPRPRPRPSGRPRP	0.137
RRIRRRPPRLPRPRPRPKNLPRP	-0.104
RRIRRRPPRLPRPRPRPAIIPRP	-0.115
RRIRPRPPRLPRPRPRPCFFPRP	-0.0762
RRIRMRPPRLPRPRPRPVSGPRP	0.594
RRIRFRPPRLPRPRPRPVAKPRP	-0.0163
RRIRPRPPRLPRPRPRPYDWPRP	0.0551
RRIRSRPPRLPRPRPRPESPPRP	0.32
RRIRFRPPRLPRPRPRPNEYPRP	-0.16
RRIRMRPPRLPRPRPRPLQAPRP	2.15
RRIRLRPPRLPRPRPRPAHKPRP	0.384
RRIRSRPPRLPRPRPRPHTSPRP	-0.445
RRIRNRPPRLPRPRPRPSHYPRP	-1.22
RRIRERPPRLPRPRPRPTRIPRP	0.17
RRIRVRPPRLPRPRPRPKDVPRP	0.00902
RRIRLRPPRLPRPRPRPALTPRP	0.129
RRIRIRPPRLPRPRPRPHYRPRP	-0.204
RRIRSRPPRLPRPRPRPSRRPRP	0.208
RRIRGRPPRLPRPRPRPPSGPRP	0.766
RRIRFRPPRLPRPRPRPMIPPRP	0.00508
RRIRKRPPRLPRPRPRPSIFPRP	-0.0205
RRIRLRPPRLPRPRPRPNLCPRP	0.119

Sequence	shrunken log2 fold change
RRIRNRPPRLPRPRPRPFEAPRP	0.0104
RRIRNRPPRLPRPRPRPRGGPRP	0.474
RRIRIRPPRLPRPRPRPFACPRP	-0.0925
RRIRSRPPRLPRPRPRPTFCPRP	0.155
RRIRKRPPRLPRPRPRPNPGPRP	0.155
RRIRLRPPRLPRPRPRPKFTPRP	-0.289
RRIRFRPPRLPRPRPRPTFLPRP	-0.452
RRIRVRPPRLPRPRPRPGIMPRP	-0.000355
RRIRPRPPRLPRPRPRPTAFPRP	0.238
RRIRKRPPRLPRPRPRPMLQPRP	0.122
RRIRWRPPRLPRPRPRPYSCPRP	-0.705
RRIRVRPPRLPRPRPRPHSAPRP	-0.119
RRIRARPPRLPRPRPRPEILPRP	0.74
RRIRPRPPRLPRPRPRPDDNPRP	-0.0275
RRIRCRPPRLPRPRPRPYAEPRP	-0.0578
RRIRVRPPRLPRPRPRPPICPRP	-0.131
RRIRGRPPRLPRPRPRPMEKPRP	0.0535
RRIRPRPPRLPRPRPRPYQMPRP	-0.722
RRIRSRPPRLPRPRPRPMYIPRP	-0.354
RRIRLRPPRLPRPRPRPFLLPRP	-0.47
RRIRARPPRLPRPRPRPWSNPRP	0.0711
RRIRIRPPRLPRPRPRPDFLPRP	-0.725
RRIRTRPPRLPRPRPRPRPEPRP	0.238
RRIRARPPRLPRPRPRPIDCPRP	0.335
RRIRVRPPRLPRPRPRPPDLPRP	0.195

Sequence	shrunken log2 fold change
RRIRTRPPRLPRPRPRPCHCPRP	-1.43
RRIRFRPPRLPRPRPRPKVHPRP	0.146
RRIRWRPPRLPRPRPRPFIIPRP	-0.617
RRIRCRPPRLPRPRPRPSRTPRP	0.0175
RRIRWRPPRLPRPRPRPQDTPRP	-0.0161
RRIRCRPPRLPRPRPRPCPRPRP	0.00856
RRIRCRPPRLPRPRPRPDHYPRP	-0.211
RRIRSRPPRLPRPRPRPKYSPRP	-0.253
RRIRFRPPRLPRPRPRPSFAPRP	-0.156
RRIRWRPPRLPRPRPRPKALPRP	0.237
RRIRNRPPRLPRPRPRPEFNPRP	-0.0322
RRIRTRPPRLPRPRPRPFREPRP	-0.0376
RRIRRRPPRLPRPRPRPSKEPRP	0.137
RRIRKRPPRLPRPRPRPGPVPRP	0.531
RRIRRRPPRLPRPRPRPQGIPRP	-0.00228
RRIRERPPRLPRPRPRPLHNPRP	-0.388
RRIRQRPPRLPRPRPRPYQRPRP	-0.52
RRIRTRPPRLPRPRPRPDVIPRP	-0.0157
RRIRKRPPRLPRPRPRPYEKPRP	-0.0121
RRIRSRPPRLPRPRPRPEAYPRP	-0.141
RRIRSRPPRLPRPRPRPFNWPRP	0.0339
RRIRPRPPRLPRPRPRPNSIPRP	-0.254
RRIRDRPPRLPRPRPRPDEEPRP	-0.00164
RRIRSRPPRLPRPRPRPTCEPRP	0.228
RRIRRRPPRLPRPRPRPQMFPRP	-0.25

Sequence	shrunken log2 fold change
RRIRQRPPRLPRPRPRPYQAPRP	-0.232
RRIRERPPRLPRPRPRPYDVPRP	-0.000921
RRIRARPPRLPRPRPRPDRYPRP	-0.474
RRIRNRPPRLPRPRPRPSRDPRP	-0.129
RRIRHRPPRLPRPRPRPYGTPRP	-1.41
RRIRIRPPRLPRPRPRPGQYPRP	-0.221
RRIRYRPPRLPRPRPRPFAAPRP	-0.508
RRIRGRPPRLPRPRPRPPQVPRP	0.791
RRIRTRPPRLPRPRPRPKVHPRP	-0.429
RRIRFRPPRLPRPRPRPQMPPRP	-0.107
RRIRGRPPRLPRPRPRPLIHPRP	0.324
RRIRRRPPRLPRPRPRPLVLPRP	0.0551
RRIRARPPRLPRPRPRPQTNPRP	0.36
RRIRWRPPRLPRPRPRPDGMPRP	0.0134
RRIRLRPPRLPRPRPRPVGSPRP	-0.165
RRIRIRPPRLPRPRPRPWKWPRP	-0.00992
RRIRLRPPRLPRPRPRPPNRPRP	0.0237
RRIRWRPPRLPRPRPRPDIEPRP	-0.0323
RRIRSRPPRLPRPRPRPYMVPRP	-0.497
RRIRTRPPRLPRPRPRPKPKPRP	0.349
RRIRARPPRLPRPRPRPSRRPRP	0.297
RRIRERPPRLPRPRPRPTTEPRP	-0.0421
RRIRVRPPRLPRPRPRPIMFPRP	-0.0691
RRIRMRPPRLPRPRPRPAMPPRP	0.548
RRIRDRPPRLPRPRPRPEHMPRP	0.05
